{"source": "patent US20220064310A1", "about": "(DEVELOPMENT CENTER FOR BIOTECHNOLOGY, published 2022)", "binders": {"B1": {"name": "mouse hybridoma anti-human CSF-1R antibody mAb AB21 (antibody, V domains shown)", "VH": "EVQLQQSGPELEKPGASVKISCKASGYSFTGYNMNWVKQSNGKSLEWIGNIDPYYGGTTYNQKFKGKATLTVDKSSSTAYMQLKSLTSEDSAVYYCARRGDYSGSSYWYFDVWGAGTTVTVSS", "VL": "DIQMTQSSSYLSVSLGGRVTITCKASDHINNWLAWYQQKPGNAPRLLISGATSLETGVPSRFSGSGSGKDYTLSITSLQTEDVVTYYCQQYWSTPFTFGSGTKLEIK", "notes": "Mouse monoclonal antibody purified from hybridoma ascites (Protein A); also called AB21 mAb; mAb 21"}}, "key": {"[1]": {"target": "T1, mouse CSF-1R (mouse, UniProt P09581 20-511, limits assumed)", "T1 sequence (looked up)": "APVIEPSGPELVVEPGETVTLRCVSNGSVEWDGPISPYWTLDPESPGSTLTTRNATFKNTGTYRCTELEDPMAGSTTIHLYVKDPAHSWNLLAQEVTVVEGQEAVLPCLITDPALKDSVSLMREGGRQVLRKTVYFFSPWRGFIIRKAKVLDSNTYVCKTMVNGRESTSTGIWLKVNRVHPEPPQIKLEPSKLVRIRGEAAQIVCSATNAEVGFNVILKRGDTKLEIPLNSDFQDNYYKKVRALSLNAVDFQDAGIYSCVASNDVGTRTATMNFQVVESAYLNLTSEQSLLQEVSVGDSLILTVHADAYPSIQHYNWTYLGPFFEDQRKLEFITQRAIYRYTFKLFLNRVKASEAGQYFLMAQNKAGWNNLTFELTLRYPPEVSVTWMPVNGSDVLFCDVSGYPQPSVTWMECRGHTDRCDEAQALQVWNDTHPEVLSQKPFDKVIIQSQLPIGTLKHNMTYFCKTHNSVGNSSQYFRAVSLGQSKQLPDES", "assay": "not described"}, "[2]": {"target": "T2, human CSF-1R extracellular domain (CSF-1R-ECD) (human, UniProt P07333 20-512)", "assay": "Biacore T200 SPR, AB21 amine-coupled on the chip, CSF-1R-ECD injected at 0.3125 to 40 nM, 1:1 Langmuir fit", "text": "(§1) To know the biding kinetics difference among individual antibodies, surface plasmon resonance (SPR) measurement with a BIAcore T200 (BIAcore, Inc., Piscataway, N.J.) was used as previously described (Karlsson & Fait, (1997) J. Immunol Methods 200:121-133). Carboxymethylated dextran biosensor chips (CMS, BIAcore Inc.) were activated with N-ethyl-N′-(3-dimethyl aminopropyl)-carbodiimide hydrochloride (EDC) and N-hydroxy succinimide (NHS) according to the supplier's instructions. AB21 mAb was diluted with 10 mM sodium acetate, pH 4.8, into 5 microgram/ml before injection at a flow rate of 20 micro L/minute to achieve approximately 100 response units (RU) of coupled protein followed by the injection of 1M ethanolamine to block unreacted groups. For kinetics measurements, two-fold serial dilutions of CSF-1R-ECD (0.3125 nM to 40 nM) were injected in HBS-P BIAcore running buffer provided by the manufacturer (BIAcore, Inc., Piscataway, N.J.) at 25° C. at a flow rate of 30 μL/min, and binding responses on the AB21 mAb were corrected by subtraction of responses on a blank flow cell. Association rates (kon or ka) and dissociation rates (koff or kd) were calculated using a simple one-to-one Langmuir binding model with separate fittings of kon and koff was used. (BIAcore™ Evaluation Software version 3.2)."}, "[3]": {"target": "T2, human CSF-1R extracellular domain …", "assay": "SPR BIAcore T200, AB21 amine-coupled, CSF-1R-ECD 0.3125-40 nM as analyte, 25 C", "text": "as §1"}, "[4]": {"target": "T3, human CSF-1R on the cell surface (THP-1 cells, endogenous); Ba/F3 cells stably expressing full-length human … (human, UniProt P07333 20-972)", "T3 construct": "whole, on cells; also called Ba/F3-CSF-1R; Ba/F3-hCSF-1R", "assay": "flow cytometry on THP-1 cells, FITC anti-mouse secondary antibody, readout CD115+ of single cells (%)", "procedure": "In addition to binding CSF-1R ECD in vitro, antibodies of the invention can also bind CSF-1R on cells. In this example, THP-1 cells (human monocytic cell line, ATCC® TIB-202™) were stained in different concentrations of antibodies (AB21) from 6 to 0.625 μg/ml. After washing, cells were stained with secondary antibody FITC anti-mouse (1:500 dilution). Cells were fixed with a fixation buffer (FluroFix™ buffer, Biolegend) and analyzed with LSRFortessa FACS analyzer (Becton Dickson, US). […] The dose-dependent binding fits a sigmoid curve in the semi-log plot, indicating binding to a specific site (i.e., the antibody binds specifically to the target on the THP-1 cells)."}, "[5]": {"target": "T4, CSF-1R-ECD-human Fc (in house) (human, UniProt P07333 20-512)", "T4 construct": "In-house fusion; also called CSF-1R-ECD-hFc; CSF1R-ECD-hFc; not shown: human Fc", "assay": "blocking ELISA: coated CSF-1R-ECD-human Fc, AB21 titrated together with M-CSF, bound CSF-1 detected with biotinylated anti-CSF-1 BAF216 and streptavidin-HRP, Abs450", "procedure": "CSF-1R-ECD-human Fe (in house) is diluted to 1.2 μg/ml with coating buffer and coating overnight at 4° C. After incubation step, plates were washed 1 time with the wash buffer and blocking with 1% casein blocking buffer at room temperature for 2 hours. Different dilutions of purified AB21 antibodies were incubated with 250 ng/ml of M-CSF (R&D system, 216-GMP-025) in dilution buffer at 37° C. for 1 hour. After 5 times of wash, the ligand which bound to the receptor can be detected by 50 ng/ml biotinylated […] clone BAF216 (R&D Systems, UK) and 1:5000 diluted streptavidin HRP (Roche Diagnostics GmbH, DE, Cat. No. 11089153001) after 1 hour incubation. Anti CSF-1R SC 2-4A5 (Santa Cruz Biotechnology, US), which inhibits the ligand-receptor interaction, was used as positive control. Plates were developed with TMB Microwell Peroxidase Substrate (KPL, 95059-154). Absorbance was measured at 450 nm. A decrease of absorbance is found, if the anti-CST-1R antibody causes a release of CSF-1 from the dimeric complex. […] Therefore, antibodies of the invention can be used to prevent or treat diseases mediated by CSF-1R or CSF-1."}, "[6]": {"target": "T5, human CSF-1R-Fc protein (M-CSF R/CD115 Fc chimera, R&D Systems) (human, UniProt P07333 20-512)", "T5 construct": "Fc part of the bought chimera not given", "assay": "ELISA, 100 ng human CSF-1R-Fc coated, four parameter logistic fit", "procedure": "(§2) After binding and washing, the bound mAb AB21 was assessed using a horseradish peroxidase conjugated secondary antibody.\n(§3) One hundred (100) ng of human CSF-1R-Fc protein was coated on a 96-well ELISA plate, and the plate was further washed with PBS. Serial dilutions from 1×10⁻¹² to 1×10⁻⁸ M of AB21 mAb antibody were added to the plate, and the plate was incubated at 37° C. for 1 hour. A goat anti-mouse IgG conjugated with horseradish peroxidase (HRP) was added. After 1 hour, 3,3′,5,5′-Tetramethylbenzidine (TMB) was added and OD450 was read. Every study was repeated three times. Data were presented as mean SD. OD readings and concentrations of antibodies were used to make a multiple scatter plot using GraphPad Prism 5. The values were predicted by four parameter logistic fit."}, "[7]": {"target": "T6, CSF-1R ECD variant 228-233A (human, UniProt P07333 20-512)", "T6 chain": "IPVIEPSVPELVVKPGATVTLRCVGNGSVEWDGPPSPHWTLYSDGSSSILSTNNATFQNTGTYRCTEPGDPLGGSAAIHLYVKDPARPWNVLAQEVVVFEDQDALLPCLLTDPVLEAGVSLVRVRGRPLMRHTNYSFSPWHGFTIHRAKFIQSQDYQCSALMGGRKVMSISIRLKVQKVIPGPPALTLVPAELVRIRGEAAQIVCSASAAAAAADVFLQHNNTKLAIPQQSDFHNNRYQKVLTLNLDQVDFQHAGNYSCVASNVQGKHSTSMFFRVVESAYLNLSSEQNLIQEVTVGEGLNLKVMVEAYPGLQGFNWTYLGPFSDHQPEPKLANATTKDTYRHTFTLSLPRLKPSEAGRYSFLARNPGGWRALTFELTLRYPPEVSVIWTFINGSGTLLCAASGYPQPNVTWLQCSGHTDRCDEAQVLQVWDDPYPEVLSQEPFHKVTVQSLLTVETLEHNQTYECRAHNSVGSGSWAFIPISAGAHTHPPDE", "assay": "ELISA, coated CSF-1R ECD variant 228-233A, AB21 titrated, Abs450", "procedure": "as §3\nTo determine the binding epitopes of anti-CSF-1R antibody AB21, different CSF-1R extracellular domain variants that certain residues were replaced with alanine were constructed. […] After the variant proteins were purified, the binding affinity of AB21 mAb to these CSF-1R-ECD variants were analyzed by ELISA with the process described in Example 1."}, "[8]": {"target": "T5, human CSF-1R-Fc protein (M-CSF R/CD115 …)", "assay": "ELISA, coated M-CSF R/CD115 Fc chimera (R&D), AB21 titrated, goat anti-mouse IgG-HRP, Abs450", "procedure": "as §2, §3"}}}
{"binder": "B1", "values": [{"measurement": "binding result", "setting": "[1]", "result": "no binding"}, {"measurement": "koff", "setting": "[2]", "result": "4.9e-05", "unit": "s⁻¹"}, {"measurement": "kon", "setting": "[2]", "result": 399000, "unit": "M⁻¹ s⁻¹"}, {"measurement": "Kd", "setting": "[3]", "result": 0.123, "unit": "nM"}, {"measurement": "EC50", "setting": "[4]", "result": 0.374, "unit": "nM"}, {"measurement": "IC50 (read off the curve)", "setting": "[5]", "result": "~2", "unit": "nM"}, {"measurement": "Kd", "setting": "[6]", "result": 0.745, "unit": "nM"}, {"measurement": "binding result", "setting": "[7]", "result": "no binding (tested: about 3e-8 M (log -7.5 on the axis))"}, {"measurement": "EC50", "setting": "[8]", "result": 0.745, "unit": "nM"}]}
